{"source": "patent US20050074814A1", "about": "“Relaxin3-GPCR135 complexes and their production and use” (priority 2003, published 2005)", "key": {"CHO-K1 cells": {"test_system": "CHO-K1 cells", "assay": "Intracellular cAMP accumulation assay in un-transfected CHO-K1 control cells", "format": "cell-based", "description": "CHO-K1 cells stably expressing human GPCR135 (GPCR135) and un-transfected CHO-K1 cells (Control) were used for cAMP accumulation assays. Cells were treated with different stimulants as indicated. cAMP accumulated in the cells was extracted by HCl and the concentration of cAMP was measured by a ELISA kit (NEN) using ^125I-labeled cAMP and Flash plates.\n(§1) CHO-K1 cells stably expressing human GPCR135 were established by transfection of GPCR135 expressing plasmid into CHO-K1 (ATCC# CCL-61) cells and culturing the transfected cells under selection of G418 (400 mg/L). The receptor expressing cells were seeded in 96-well plates at a cell density of 30,000 cells/well. Twenty-four hours later, cell culture medium was replaced with DMEM-F12 plus 2 mM IBMX (sigma). A different test compound for cAMP stimulation was added to each well. The reactions were incubated at room temperature for 20 min. Twenty micro-liters of 0.5 N HCl was added to each well to stop the reaction and extract the accumulated cAMP. The cAMP concentration was measured using a cAMP ELISA kit (NEN)."}, "GPCR135 [1]": {"molecular_target": "T1, GPCR135 (Homo sapiens, UniProt Q9NSD7)", "T1 sequence (Q9NSD7 1-469)": "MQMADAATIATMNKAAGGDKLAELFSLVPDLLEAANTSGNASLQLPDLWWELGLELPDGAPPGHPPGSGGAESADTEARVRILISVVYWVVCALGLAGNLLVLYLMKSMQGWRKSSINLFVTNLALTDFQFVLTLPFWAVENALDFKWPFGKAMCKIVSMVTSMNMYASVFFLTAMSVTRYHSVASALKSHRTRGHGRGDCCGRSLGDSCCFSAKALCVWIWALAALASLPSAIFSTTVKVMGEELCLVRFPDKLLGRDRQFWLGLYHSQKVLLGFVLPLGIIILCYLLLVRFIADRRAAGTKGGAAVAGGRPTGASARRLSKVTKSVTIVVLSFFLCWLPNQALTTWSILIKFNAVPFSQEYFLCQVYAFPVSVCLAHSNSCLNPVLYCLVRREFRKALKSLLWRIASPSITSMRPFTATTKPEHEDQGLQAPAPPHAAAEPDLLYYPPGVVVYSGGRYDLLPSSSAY", "assay": "GTPγS binding assay with GPCR135 expressing cell membranes", "format": "biochemical", "set-up": "primers complementary to the putative translation start and stop sites of the GPCR135 open reading frame; expressed in transfected cells; host or cells: CHO-K1 (transient, pCIneo vector), membranes", "details": "isolated membranes of CHO-K1 cells transfected with GPCR135; 35S-GTPγS", "description": "Frozen rat brains (5 g) were homogenized at −30° C. in 40 ml ethanol/HCl (ethanol to 0.8M HCl ratio at 3:1). The homogenate was extracted at 4° C. for 2 hr and then centrifuged at 4° C. at 20,000 g for 30 min. The supernatant was loaded onto a 2 ml SP-Sephadex C-25 column (Amersham), washed with 1 M acetic acid and eluted with 2 M pyridine and 1 M acetic acid. The eluted fraction was loaded onto a 6 ml C-18 BondElut column, washed with 0.1% TFA and eluted with 60% acetonitrile and 0.1% TFA. The eluted peptides were lyophilized, reconstituted in water, and tested for GPCR135 ligand activity using GTPγS binding assay as described in Example 5.\nGPCR135 expression vector was transfected into CHO-K1 cells using Lipofectamine (Invitrogen). Two days after transfection, the transfected cells were harvested and homogenized in GTPγS binding buffer: 50 mM Tris-HCl, pH 7.4, 10 mM MgCl2, 1 mM EDTA pH 8.0, and 100 mM NaCl. Protease inhibitors were added to the buffer at concentrations of 1 mM PMSF, 10 μg/ml of pepstain A, 10 μg/ml of leupeptin. Cell membranes were isolated by centrifugation at 20,000 g for 30 min. […] Microscint-40 (Packard) was added to each well and the plate was counted on a top counter (TopCount NTX, Packard)."}, "GPCR135 [2]": {"molecular_target": "T1, GPCR135", "assay": "Ca2+ mobilization assay (FLIPR) in HEK293 cells co-expressing GPCR135 and Gqi5", "format": "cell-based", "set-up": "primers complementary to the putative translation start and stop sites of the GPCR135 open reading frame; expressed in transfected cells", "description": "Using LipofectAmine, human embryonic kidney (HEK) 293 cells were co-transfected with a plasmid expressing GPCR135 receptor and a plasmid expressing Gqi5, a mutant G-protein that translates the activation of GPCR135 into an increased intracellular Ca 2+, or increased Ca^2+ mobilization (Conklin et al., 1993, Nature 363: 274-276). Two days after transfection, cells were detached with PBS plus 10 mM EDTA, pH 8.0. The detached cells were washed with DMEM-F12 medium (without phenol red, Invitrogen) and seeded in black poly-D lysine coated 96-well plates at a cell density of 50,000 cell/well. Calcium dye, Fluo-3 (AM) (TEFLABS, Austin, Tex.) was loaded into the cells and ligand stimulated calcium mobilization was monitored using FLIPR (Molecular Device).\nHEK293 cells, untransfected (293 Control) or transfected by Gqi5 (293/Gqi5) alone or human GPCR135 (GPCR135) alone, or co-transfected by human GPCR135 and Gqi5 (GPCR135/Gqi5), were used for Ca^2+ mobilization assays under stimulation of relaxin3 as the ligand. Ligand-stimulated intracellular mobilization was monitored using FLIPR."}, "GPCR135 [3]": {"molecular_target": "T1, GPCR135", "assay": "Intracellular cAMP accumulation assay in CHO-K1 cells stably expressing human GPCR135", "format": "cell-based", "set-up": "primers complementary to the putative translation start and stop sites of the GPCR135 open reading frame; expressed in transfected cells; host or cells: CHO-K1 (transient, pCIneo vector), membranes", "details": "CHO-K1 cells expressing human GPCR135", "description": "as §1"}, "LGR7": {"molecular_target": "T2, LGR7 (Homo sapiens, UniProt Q9HBX9)", "T2 sequence (Q9HBX9 1-757)": "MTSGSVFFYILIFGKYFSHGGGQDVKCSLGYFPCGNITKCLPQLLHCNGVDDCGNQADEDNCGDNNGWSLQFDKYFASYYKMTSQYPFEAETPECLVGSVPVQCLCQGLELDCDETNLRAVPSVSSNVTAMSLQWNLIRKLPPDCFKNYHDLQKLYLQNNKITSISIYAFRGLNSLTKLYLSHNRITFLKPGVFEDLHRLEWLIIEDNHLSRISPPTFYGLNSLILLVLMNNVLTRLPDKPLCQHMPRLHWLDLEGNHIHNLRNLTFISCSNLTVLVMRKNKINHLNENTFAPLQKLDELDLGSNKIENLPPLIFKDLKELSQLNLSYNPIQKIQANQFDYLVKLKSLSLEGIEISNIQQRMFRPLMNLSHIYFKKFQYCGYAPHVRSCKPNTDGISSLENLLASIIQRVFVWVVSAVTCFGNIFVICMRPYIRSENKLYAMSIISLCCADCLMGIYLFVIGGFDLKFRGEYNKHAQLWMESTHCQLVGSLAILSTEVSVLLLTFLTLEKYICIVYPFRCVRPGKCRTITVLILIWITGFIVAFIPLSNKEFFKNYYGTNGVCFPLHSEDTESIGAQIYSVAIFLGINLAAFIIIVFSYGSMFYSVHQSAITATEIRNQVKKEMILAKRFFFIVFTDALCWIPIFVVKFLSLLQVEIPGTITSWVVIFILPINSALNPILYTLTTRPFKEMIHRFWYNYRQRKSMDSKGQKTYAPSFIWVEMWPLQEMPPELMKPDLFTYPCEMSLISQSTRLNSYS", "details": "cited from earlier work"}, "human GPCR135": {"test_system": "human GPCR135", "assay": "Intracellular cAMP accumulation assay in CHO-K1 cells stably expressing human GPCR135", "format": "cell-based", "details": "in the presence of GPCR135", "description": "as §1"}, "GPCR135 [4]": {"molecular_target": "T1, GPCR135", "set-up": "host or cells: Cos-1 (transient)", "details": "transient expression of GPCR135 in Cos-1 cells; cited from earlier work"}, "rat GPCR135": {"test_system": "rat GPCR135", "sequence (as listed by the source)": "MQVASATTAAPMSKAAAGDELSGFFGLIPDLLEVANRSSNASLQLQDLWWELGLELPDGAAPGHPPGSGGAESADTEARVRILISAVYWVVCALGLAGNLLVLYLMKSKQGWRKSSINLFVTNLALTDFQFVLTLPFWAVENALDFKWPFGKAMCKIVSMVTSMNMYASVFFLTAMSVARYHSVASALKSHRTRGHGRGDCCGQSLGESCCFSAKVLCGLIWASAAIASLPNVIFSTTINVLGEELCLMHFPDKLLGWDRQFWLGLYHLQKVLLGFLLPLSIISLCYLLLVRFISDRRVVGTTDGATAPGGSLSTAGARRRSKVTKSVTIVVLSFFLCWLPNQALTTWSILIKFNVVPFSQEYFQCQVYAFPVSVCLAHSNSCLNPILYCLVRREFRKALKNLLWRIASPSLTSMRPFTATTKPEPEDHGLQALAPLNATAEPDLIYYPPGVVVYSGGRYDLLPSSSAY", "assay": "Radioligand binding assay on COS-7 cells transfected with GPCR135", "details": "rat GPCR135 in COS-7 cells; presence or absence of 1 μM unlabeled competitor", "description": "(§2) COS-7 cells in 6-well tissue culture plates were transfected by GPCR135 expressing plasmid using LipofectAmine. Two days after transfection, cells were washed with binding buffer: DMEM plus 50 mM Hepes, pH 7.2 and 1% BSA. ^125I-label human relaxin3 was added to each well in 1 ml of binding buffer at presence or absence 1 μM of unlabeled relaxin as competitor. The binding assays were carried out at room temperature for one hour and the unbound ligand was washed away by ice-cold PBS. The bound 125I-relaxin3 was counted in a gamma counter."}, "mouse GPCR135": {"molecular_target": "T3, mouse GPCR135 (Mus musculus, UniProt Q8BGE9)", "T3 construct": "Mouse GPCR135 coding region was PCR amplified from mouse genomic DNA; expressed in transfected cells; host or cells: COS-7 (transient)", "T3 sequence (Q8BGE9 1-472)": "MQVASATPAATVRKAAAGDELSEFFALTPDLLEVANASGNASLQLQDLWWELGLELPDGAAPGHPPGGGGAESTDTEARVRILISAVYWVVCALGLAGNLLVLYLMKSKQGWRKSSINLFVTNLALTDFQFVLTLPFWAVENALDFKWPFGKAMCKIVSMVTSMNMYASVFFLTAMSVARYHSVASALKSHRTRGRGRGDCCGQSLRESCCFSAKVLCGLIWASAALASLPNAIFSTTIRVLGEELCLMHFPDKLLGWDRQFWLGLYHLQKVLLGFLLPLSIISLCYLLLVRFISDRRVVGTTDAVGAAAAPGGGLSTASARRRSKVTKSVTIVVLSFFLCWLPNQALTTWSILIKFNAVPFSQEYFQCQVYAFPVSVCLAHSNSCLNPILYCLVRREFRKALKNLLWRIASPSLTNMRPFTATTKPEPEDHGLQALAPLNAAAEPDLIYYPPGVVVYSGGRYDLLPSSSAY", "assay": "Radioligand binding assay on COS-7 cells transfected with GPCR135", "details": "mouse GPCR135 in COS-7 cells; presence or absence of 1 μM unlabeled competitor", "description": "as §2"}, "GPCR135 [5]": {"molecular_target": "T1, GPCR135", "assay": "Radioligand binding assay on COS-7 cells transfected with GPCR135", "set-up": "primers complementary to the putative translation start and stop sites of the GPCR135 open reading frame; expressed in transfected cells", "details": "human GPCR135 in COS-7 cells; presence or absence of 1 μM unlabeled competitor", "description": "as §2"}}}
{"compound": "relaxin3: recombinant human relaxin3, mature two-chain (A and B) peptide linked by disulfide bridges, purified from transfected COS-7 medium", "values": [{"measurement": "forskalin-stimulated cAMP accumulation", "setting": "CHO-K1 cells; control cells where GPCR135 is absent", "value": "not in control cells"}, {"measurement": "stimulation of GTPγS binding in GPCR135 expressing cell membrane", "setting": "GPCR135 [1]", "value": "potently stimulated GTPγS binding"}, {"measurement": "ligand-stimulated intracellular Ca2+ mobilization", "setting": "GPCR135 [2]", "value": "stimulated Ca^2+ mobilization"}, {"measurement": "forskalin-stimulated cAMP accumulation", "setting": "GPCR135 [3]", "value": "inhibits forskalin-stimulated cAMP accumulation"}, {"measurement": "activation of LGR7", "setting": "LGR7", "value": "activates LGR7"}]}
{"compound": "C=C[C@@]1(C)CC(=O)[C@]2(O)[C@@]3(C)[C@@H](O)CCC(C)(C)[C@@H]3[C@H](O)[C@H](OC(C)=O)[C@@]2(C)O1", "note": "[forskalin]", "values": [{"measurement": "intracellular concentration of cAMP", "setting": "CHO-K1 cells; in the absence of GPCR135", "value": "increases the intracellular concentration of cAMP"}, {"measurement": "intracellular concentration of cAMP", "setting": "human GPCR135", "value": "increases the intracellular concentration of cAMP"}]}
{"compound": "angiotensin II (DRVYIHPF; Angiotensin-2; UniProt P01019 25-32, looked up)", "values": [{"measurement": "binding sites on GPCR135 expressing cells", "setting": "GPCR135 [4]", "value": "did not produce any binding sites"}]}
{"compound": "^125I-relaxin 3: 125I-labeled human relaxin3 used as radioligand", "values": [{"measurement": "specific binding to GPCR135", "setting": "rat GPCR135", "value": "specifically binds"}, {"measurement": "specific binding to GPCR135", "setting": "mouse GPCR135", "value": "specifically binds"}, {"measurement": "specific binding to GPCR135", "setting": "GPCR135 [5]", "value": "specifically binds"}]}
